± gives the half width of the 95% confidence interval.
Tests used:
[1] = folding stability dG unfold from trypsin proteolysis; higher = more stable
Method in brief: (§1)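 Only designs with AlphaFold2 dimer inter-PAE above 15 were retained; each was a mini-protein under 80 residues with no cysteine, in a PA-tagged cDNA display construct. After digestion with trypsin and chymotrypsin and sequencing, K50 was inferred by Bayesian fitting of counts, and unfolding free energy was derived per protease or combined against a sequence-predicted unfolded-state K50 and a shared folded-state K50.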

[2] = folding stability dG unfold from chymotrypsin proteolysis; higher = more stable
Method in brief: as §1

[3] = folding stability dG unfold (combined trypsin and chymotrypsin); higher = more stable
Method in brief: as §1

SAGGSAGGSAGGKTLKLTLTLKVEVKETVTTTTADGTTEERPVKEVEVKLTATIDLSDLSAGGSAGGSAGGS [r10_355_TrROS_Hall]
folding stability dG unfold [1]: 3.04 ± 0.24 kcal/mol
folding stability dG unfold [2]: 4.38 ± 0.2 kcal/mol
folding stability dG unfold [3]: 4 ± 0.3 kcal/mol

SAGGSAGGSAGGKTVVLFVDPKTKKVYILYPDGKIETLSPEELKNKPIIVKPVKLHPKAGSAGGSAGGSAGG [r7_98_TrMRF]
folding stability dG unfold [1]: 0.817 ± 0.024 kcal/mol
folding stability dG unfold [2]: 1.86 ± 0.053 kcal/mol
folding stability dG unfold [3]: 1.56 ± 0.053 kcal/mol

SAGGSAGGSAGGKTYTAEELRKKLPPGAVIRLKNGKKYEIKEGDKIKKGDKIEIVPKKDLSAGGSAGGSAGG [r7_507_TrROS_Hall]
folding stability dG unfold [1]: -0.344 ± 0.32 kcal/mol
folding stability dG unfold [2]: 0.369 ± 0.14 kcal/mol
folding stability dG unfold [3]: 0.18 ± 0.13 kcal/mol

SAGGSAGGSAGGKVGPGTTVTIVEVEVVGSKINPLGLVTTDFVVKKVEVVEVEKGADLKSAGGSAGGSAGGS [r10_826_JUSTAS]
folding stability dG unfold [1]: 0.487 ± 0.041 kcal/mol
folding stability dG unfold [2]: -0.775 ± 0.41 kcal/mol
folding stability dG unfold [3]: 0.0651 ± 0.12 kcal/mol

SAGGSAGGSAGGKVHPDQPVKLRLTFTVSGVYYDENKPRVETKPVTVEFTALAPDEDALSAGGSAGGSAGGS [r10_745_TrMRF]
folding stability dG unfold [1]: 0.0543 ± 0.12 kcal/mol
folding stability dG unfold [2]: 0.208 ± 0.17 kcal/mol
folding stability dG unfold [3]: 0.185 ± 0.07 kcal/mol

SAGGSAGGSAGGKVIDSEEFRNNFPSGGVLVDNNGNLYLVGNNYPIDPNQPFLYVSPDEISAGGSAGGSAGG [r7_507_TrMRF]
folding stability dG unfold [1]: 0.959 ± 0.086 kcal/mol
folding stability dG unfold [2]: 1.56 ± 0.17 kcal/mol
folding stability dG unfold [3]: 1.23 ± 0.22 kcal/mol

SAGGSAGGSAGGKVIVKEITINEDGTVTIKGEIFDENGELIAEAEFKFRLGDGGPIEFESAGGSAGGSAGGS [r10_484_TrMRF]
folding stability dG unfold [1]: 2.18 ± 0.18 kcal/mol
folding stability dG unfold [2]: 2.462 ± 0.021 kcal/mol
folding stability dG unfold [3]: 2.3 ± 0.16 kcal/mol

SAGGSAGGSAGGKVTKVILYPLPGGKVRLIIYGDDGKPYFFETSFEDLKNFPNIPFIILPSAGGSAGGSAGG [r7_238_TrMRF]
folding stability dG unfold [1]: 2.19 ± 0.069 kcal/mol
folding stability dG unfold [2]: 2.27 ± 0.049 kcal/mol
folding stability dG unfold [3]: 2.11 ± 0.073 kcal/mol

SAGGSAGGSAGGKYKIKEIKVEEVDGKKYVKLVIYDKNGKPVKTIVMSLEELKKLPPELLSAGGSAGGSAGG [r7_263_TrROS_Hall]
folding stability dG unfold [1]: 1.55 ± 0.041 kcal/mol
folding stability dG unfold [2]: 2.37 ± 0.12 kcal/mol
folding stability dG unfold [3]: 1.89 ± 0.22 kcal/mol

SAGGSAGGSAGGLGLDLPVFPVKTTTSSSTVPLPNGQTVTVTTTTTTFPGSSSTTTTTTGSAGGSAGGSAGG [r17_59_JUSTAS]
folding stability dG unfold [1]: 1.02 ± 0.031 kcal/mol
folding stability dG unfold [2]: 1.46 ± 0.037 kcal/mol
folding stability dG unfold [3]: 1.31 ± 0.037 kcal/mol

SAGGSAGGSAGGLGPDEKPKVKYLALIYDPETGEVTVVPADKLDKVLKETDASVSLFPVSAGGSAGGSAGGS [r10_1121_TrMRF]
folding stability dG unfold [1]: 0.351 ± 0.1 kcal/mol
folding stability dG unfold [2]: 0.401 ± 0.1 kcal/mol
folding stability dG unfold [3]: 0.565 ± 0.2 kcal/mol

SAGGSAGGSAGGLKPGEKLVFKTETKTLKLKAKVFNKDTGEEFEVEVELTVTRIEVYPLSAGGSAGGSAGGS [r10_1116_TrROS_Hall]
folding stability dG unfold [1]: 3.04 ± 0.31 kcal/mol
folding stability dG unfold [2]: 4.96 ± 0.22 kcal/mol
folding stability dG unfold [3]: 4.79 ± 0.33 kcal/mol

SAGGSAGGSAGGLPPGDKLKPVASWPIWAMFPVTYKGPDGELPFNIMIPIRIEIWKPDDSAGGSAGGSAGGS [r10_758_TrROS]
folding stability dG unfold [1]: 2.23 ± 0.087 kcal/mol
folding stability dG unfold [2]: 2.674 ± 0.022 kcal/mol
folding stability dG unfold [3]: 2.49 ± 0.1 kcal/mol

SAGGSAGGSAGGMATTTTKIEIYPGTGKVKTTTTVTDPSTGTTTTTTTTEETSLEELTSSAGGSAGGSAGGS [r10_173_JUSTAS]
folding stability dG unfold [1]: -0.0031 ± 0.05 kcal/mol
folding stability dG unfold [2]: 0.657 ± 0.082 kcal/mol
folding stability dG unfold [3]: 0.345 ± 0.13 kcal/mol

SAGGSAGGSAGGMEEIRELLEKAKKEGLESITVTVNDPAEATEVRAYAEEKGIPVTINASAGGSAGGSAGGS [r10_307_JUSTAS]
folding stability dG unfold [1]: 0.415 ± 0.048 kcal/mol
folding stability dG unfold [2]: -1.01 ± 0.56 kcal/mol
folding stability dG unfold [3]: -0.0348 ± 0.16 kcal/mol

SAGGSAGGSAGGMEFELEDGGYVKVELELSEDGELVARVEFFNENGEPVAEIEVPLEEILSAGGSAGGSAGG [r7_660_TrMRF]
folding stability dG unfold [1]: 1.63 ± 0.12 kcal/mol
folding stability dG unfold [2]: 1.76 ± 0.062 kcal/mol
folding stability dG unfold [3]: 1.76 ± 0.13 kcal/mol

SAGGSAGGSAGGMEIEFEKAKFEIEEIDPEKGKIKVKFPGLEKEFEIEFDKKGKIVKISGSAGGSAGGSAGG [r7_553_TrMRF]
folding stability dG unfold [1]: 0.228 ± 0.057 kcal/mol
folding stability dG unfold [2]: 0.959 ± 0.036 kcal/mol
folding stability dG unfold [3]: 0.612 ± 0.12 kcal/mol

SAGGSAGGSAGGMEVEYNPEELSPESEVTITVTLPGGEKVELKAKIYTNPDGSLSYELESAGGSAGGSAGGS [r10_390_JUSTAS]
folding stability dG unfold [1]: 0.697 ± 0.047 kcal/mol
folding stability dG unfold [2]: 1.58 ± 0.035 kcal/mol
folding stability dG unfold [3]: 1.3 ± 0.053 kcal/mol

SAGGSAGGSAGGMEVKVEEFVENGKPVVREFYPDSIKVTTYTFDENGNVTEKKEYVIPKESAGGSAGGSAGG [r7_722_JUSTAS]
folding stability dG unfold [1]: 0.413 ± 0.061 kcal/mol
folding stability dG unfold [2]: 0.92 ± 0.15 kcal/mol
folding stability dG unfold [3]: 0.691 ± 0.17 kcal/mol

SAGGSAGGSAGGMEVVIPLDKNERYLAYVLGEPKFVEFDPEKGYLVIPNTPPENVIVVKYSAGGSAGGSAGG [r7_200_TrMRF]
folding stability dG unfold [1]: 0.248 ± 0.05 kcal/mol
folding stability dG unfold [2]: 0.418 ± 0.15 kcal/mol
folding stability dG unfold [3]: 0.325 ± 0.1 kcal/mol

SAGGSAGGSAGGMFKTYDSLEDVKKNETGDGAKGKVFVVAPIPELENAVLVLVEIRPPDSAGGSAGGSAGGS [r10_126_TrMRF]
folding stability dG unfold [1]: -0.219 ± 0.069 kcal/mol
folding stability dG unfold [2]: 0.504 ± 0.11 kcal/mol
folding stability dG unfold [3]: 0.231 ± 0.088 kcal/mol

SAGGSAGGSAGGMFLIKLPNGKVLLFESEEEAKAALEELTGKPVDLENLEIVPLPEEELSAGGSAGGSAGGS [r10_62_TrROS_Hall]
folding stability dG unfold [1]: 3.65 ± 0.14 kcal/mol
folding stability dG unfold [2]: 3.14 ± 0.045 kcal/mol
folding stability dG unfold [3]: 3.3 ± 0.11 kcal/mol

SAGGSAGGSAGGMFYIKNEKGEVFPFTSLEEFLKQLEEKTGKPVKLNNIVIYPAAPHSLSAGGSAGGSAGGS [r10_62_TrMRF]
folding stability dG unfold [1]: 1.04 ± 0.042 kcal/mol
folding stability dG unfold [2]: 1.81 ± 0.15 kcal/mol
folding stability dG unfold [3]: 1.7 ± 0.27 kcal/mol

SAGGSAGGSAGGMGINVTVSEEVSVLPDPSVVRVTTTTKTPDGTTTVTEEVIPGPEELESAGGSAGGSAGGS [r10_1221_JUSTAS]
folding stability dG unfold [1]: -0.15 ± 0.045 kcal/mol
folding stability dG unfold [2]: 1.47 ± 0.099 kcal/mol
folding stability dG unfold [3]: 1.2 ± 0.075 kcal/mol

SAGGSAGGSAGGMIIEKKTVEKLPDGTVKVTVSIITVNDDGKTETIKTETKIIPLSELLGSAGGSAGGSAGG [r7_521_JUSTAS]
folding stability dG unfold [1]: 2.31 ± 0.11 kcal/mol
folding stability dG unfold [2]: 2.25 ± 0.1 kcal/mol
folding stability dG unfold [3]: 2.18 ± 0.11 kcal/mol

SAGGSAGGSAGGMILRDPNRDIWTADFPDSSGNLVSSREFPPGEIEEVLAEGNVSAEVLPSAGGSAGGSAGG [r11_159_JUSTAS]
folding stability dG unfold [1]: 0.362 ± 0.015 kcal/mol
folding stability dG unfold [2]: 0.297 ± 0.059 kcal/mol
folding stability dG unfold [3]: 0.315 ± 0.043 kcal/mol

SAGGSAGGSAGGMIVLKDPDPARLEARAEELRAELEAAGRELPPDVEIEVLEAEPDPALLSAGGSAGGSAGG [r7_965_JUSTAS]
folding stability dG unfold [1]: -0.194 ± 0.21 kcal/mol
folding stability dG unfold [2]: -0.568 ± 0.37 kcal/mol
folding stability dG unfold [3]: -0.279 ± 0.29 kcal/mol

SAGGSAGGSAGGMKIKITVEVFDPNTGKVLKTEEFTSLEEAEKKVKEEDPNKVKVTVKEESAGGSAGGSAGG [r7_201_JUSTAS]
folding stability dG unfold [1]: 0.805 ± 0.056 kcal/mol
folding stability dG unfold [2]: 1.71 ± 0.032 kcal/mol
folding stability dG unfold [3]: 1.33 ± 0.077 kcal/mol

SAGGSAGGSAGGMKILSVEEDAPPDYVTVTELTVDSEGNKKIITTTIPIEPPPEVSPSLISAGGSAGGSAGG [r7_873_JUSTAS]
folding stability dG unfold [1]: 1.15 ± 0.039 kcal/mol
folding stability dG unfold [2]: 1.45 ± 0.1 kcal/mol
folding stability dG unfold [3]: 1.24 ± 0.17 kcal/mol

SAGGSAGGSAGGMKIVFLGKKALIENENGEVTEIPVGSLEEFEKLAEAFPDYEAVPAVPSAGGSAGGSAGGS [r10_1211_TrMRF]
folding stability dG unfold [1]: 0.888 ± 0.025 kcal/mol
folding stability dG unfold [2]: 1.5 ± 0.029 kcal/mol
folding stability dG unfold [3]: 1.31 ± 0.051 kcal/mol

SAGGSAGGSAGGMKKKIPNKTLTIEIEVKLENGLYLKMKITVNKNGEIKIEIEVIPKEDLSAGGSAGGSAGG [r7_214_TrROS_Hall]
folding stability dG unfold [1]: 2.57 ± 0.12 kcal/mol
folding stability dG unfold [2]: 3.33 ± 0.073 kcal/mol
folding stability dG unfold [3]: 3.08 ± 0.14 kcal/mol

SAGGSAGGSAGGMKKYKITVYDEKTGEKHTIEIEMSEEELEELAKKLAEKHNVKVRIEKVSAGGSAGGSAGG [r7_562_TrROS_Hall]
folding stability dG unfold [1]: 2.73 ± 0.095 kcal/mol
folding stability dG unfold [2]: 4.27 ± 0.052 kcal/mol
folding stability dG unfold [3]: 3.91 ± 0.062 kcal/mol

SAGGSAGGSAGGMKTIEITNADGSKATAELLPDGWVKIYFEETGEEKTLPAKDLTITPPSAGGSAGGSAGGS [r10_289_TrROS_Hall]
folding stability dG unfold [1]: 0.423 ± 0.038 kcal/mol
folding stability dG unfold [2]: 0.5 ± 0.013 kcal/mol
folding stability dG unfold [3]: 0.466 ± 0.05 kcal/mol

SAGGSAGGSAGGMKTIVLPNVTPEEAEALAAELEKKYPGRTVNVTYVPENPTTVVITVGSAGGSAGGSAGGS [r10_852_JUSTAS]
folding stability dG unfold [1]: 2.21 ± 0.085 kcal/mol
folding stability dG unfold [2]: 2.54 ± 0.12 kcal/mol
folding stability dG unfold [3]: 2.41 ± 0.087 kcal/mol

SAGGSAGGSAGGMKTIVVPKDELEKLKEELEKKGKKVETSEDGTWTVDGKPVKVVVEPGSAGGSAGGSAGGS [r10_930_JUSTAS]
folding stability dG unfold [1]: 0.352 ± 0.062 kcal/mol
folding stability dG unfold [2]: 0.731 ± 0.032 kcal/mol
folding stability dG unfold [3]: 0.594 ± 0.1 kcal/mol

SAGGSAGGSAGGMKVERVEVVELPNGQRVLTRTLEVVPPDGSSRVLETEVRFYPPDEALLSAGGSAGGSAGG [r7_917_JUSTAS]
folding stability dG unfold [1]: -0.666 ± 0.38 kcal/mol
folding stability dG unfold [2]: 0.291 ± 0.06 kcal/mol
folding stability dG unfold [3]: 0.0413 ± 0.065 kcal/mol
